The record followed here is patent publication US20070249808A1 (priority 2000, published 2007).

This assay has as its system CD3+ Vβ+ T cells of peripheral blood lymphocytes (PBL). Description: T-cell enrichment assay with HtTA 4 cells transfected with bicistronic constructs. The conditions noted are these: PBL from a healthy donor; 9 days of specific stimulation; FIG. 18. In kind it is cell-based, human.

B1: pCDL-HERV WΔ120 aa: N-terminal 120 amino acid fragment of HERV-W ENV (amino acids 1 to 120, including signal peptide), expressed from a bicistronic cassette (protein)
chain: APPPCRCMTSSSPYQEFLWRMQRPGNIDAPSYRSLSKGTPTFTAHTHMPRNCYHSATLCMHANTHYWTGKMINPSCPGGLGVTVCWTYFTQTGMSDGGGV
In the case of B1, the “expansion of Vβ17+ T-cells” value is given as “no expansion”.
